This is an account of results in publication PMC4996508.

The test has as its target Neurospora crassa importin-α (residues 75-529) (Neurospora crassa). Nature of the test: ITC; importin-α (50 μM) in the cell, PAC-3 NLS peptide (500 μM) titrated from the syringe; 20°C; 20 mM Tris-HCl pH 8.0, 100 mM NaCl; single binding site model. Background: Isothermal titration calorimetry measures the heat released or taken up as one component is titrated into another.

Chain of Neurospora crassa importin-α (residues 75-529) (Neurospora crassa) (G5EB89 other isoform, or with tags, fused parts or gaps): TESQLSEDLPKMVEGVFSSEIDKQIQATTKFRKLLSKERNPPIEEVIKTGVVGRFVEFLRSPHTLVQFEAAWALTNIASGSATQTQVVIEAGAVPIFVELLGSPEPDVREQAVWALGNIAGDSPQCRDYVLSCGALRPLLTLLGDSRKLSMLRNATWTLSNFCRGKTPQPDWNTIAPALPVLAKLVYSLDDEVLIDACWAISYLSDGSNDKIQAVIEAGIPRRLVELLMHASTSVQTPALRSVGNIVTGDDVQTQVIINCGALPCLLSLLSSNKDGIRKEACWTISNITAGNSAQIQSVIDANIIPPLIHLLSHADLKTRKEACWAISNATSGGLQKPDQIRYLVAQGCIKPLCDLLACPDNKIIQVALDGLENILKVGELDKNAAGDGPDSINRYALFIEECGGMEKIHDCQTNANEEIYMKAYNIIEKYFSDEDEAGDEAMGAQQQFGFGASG
Chain of PAC-3 NLS peptide (peptide): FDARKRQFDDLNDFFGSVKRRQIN

The Kd is a measure of binding affinity in units of concentration. As usually defined, the stoichiometry N is the number of molecules, sites or subunits per partner or assembly. PAC-3 NLS peptide displayed a Kd of 390 nM, a dH of -12.1 kcal/mol and a stoichiometry N of 1.
